Key:
crystal structure = target: the molecule itself; experiment: crystal structure
[1] = target: T1, ArnA C-terminal decarboxylase domain (T316M to S660) (E. coli, UniProt P77398 316-660, T316M); experiment: SEC
T1 sequence (looked up): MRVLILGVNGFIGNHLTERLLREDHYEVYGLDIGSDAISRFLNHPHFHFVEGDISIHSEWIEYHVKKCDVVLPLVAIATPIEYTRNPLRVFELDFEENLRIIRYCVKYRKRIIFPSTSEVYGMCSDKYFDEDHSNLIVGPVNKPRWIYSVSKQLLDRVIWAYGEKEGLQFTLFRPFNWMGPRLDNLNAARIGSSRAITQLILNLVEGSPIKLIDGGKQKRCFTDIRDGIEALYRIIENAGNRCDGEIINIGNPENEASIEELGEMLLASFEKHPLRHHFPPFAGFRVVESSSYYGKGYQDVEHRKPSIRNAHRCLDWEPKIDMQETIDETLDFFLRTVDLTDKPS

B1: ArnA N-terminal formyltransferase domain (residues M1 to N305) (domain or fragment, E. coli, UniProt P77398 1-305, looked up)
chain: MKTVVFAYHDMGCLGIEALLAAGYEISAIFTHTDNPGEKAFYGSVARLAAERGIPVYAPDNVNHPLWVERIAQLSPDVIFSFYYRHLIYDEILQLAPAGAFNLHGSLLPKYRGRAPLNWVLVNGETETGVTLHRMVKRADAGAIVAQLRIAIAPDDIAITLHHKLCHAARQLLEQTLPAIKHGNILEIAQRENEATCFGRRTPDDSFLEWHKPASVLHNMVRAVADPWPGAFSYVGNQKFTVWSSRVHPHASKAQPGSVISVAPLLIACGDGALEIVTGQAGDGITMQGSQLAQTLGLVQGSRLN
Does B1 bind (crystal structure)?
Result: binds

What about the Kd [1] of the same binder?
The Kd was greater than 5 mM.

From article PMC3326539 (The Journal of biological chemistry, 2005)
